Test results reported in patent publication US20070098715A1 (published 2007).
Where two headings read alike, the source gives them in different places.

Tests used:
[1] = target: T1, Ten-M2 antigen (BiaCore analyte) (UniProt Q9NT68 399-2774)
[2] = target: T1, Ten-M2 antigen (BiaCore analyte); remark: listed apart in the source
[3] = target: T2, Ten-M2 endogenously expressed on human cancer cell lines (SNB-19 and others) (human, UniProt Q9NT68 1-2774); assay: cell-based or functional assay
[4] = target: T2, Ten-M2 endogenously expressed on human …; assay: flow cytometry on SNB-19 cells at 4° C., Alexa647 anti-human IgG secondary
[5] = target: T1, Ten-M2 antigen (BiaCore analyte); remark: listed apart in the source
[6] = target: T1, Ten-M2 antigen (BiaCore analyte); remark: listed apart in the source
[7] = target: T3, soluble Ten-M2 antigen (FIG. 1B), Ten-M2 amino acids 400-2733 with 6xHis-V5 tag (human, UniProt Q9NT68 399-2774); assay: ELISA, plate coated with soluble Ten-M2 antigen, hybridoma supernatant
T3 construct: also called Curagen 007-V5HIS; soluble Ten-M2 (Cur007) ECD

| Binder | Kd [1] | koff [2] | kon [2] | % Internalization (SNB-19 cells) [3] | Internalized Fluorescence (SNB-19 cells, 37° C. 30 min, glutathione-resistant) [3] | Total Bound Fluorescence [4] | Kd [5] | koff [6] | Kd [2] | binding result [7] |
| --- | --- | --- | --- | --- | --- | --- | --- | --- | --- | --- |
| Ten-M2-120 (antibody, V domains shown, also called Mab120) VH: QVQLVESGGGVVQPGRSLRLSCAASGFTFSSYGMHWVRQAPGKGLEWVAVLWYDGSKKFYADSVKGRFTISRDNSKNTLYLQMNSLRAEDTALYYCARGPWNYYYYGMDVWGQGTTVTVSS VL: EIVLTQSPGTLSLSPGERATLSCRASQSVISSYLAWYQQKPGQAPRLLIYNASNRATGIPDRFSGSGSGTDFTLTISRLEPEDFAVYYCQQYGSSPITFGQGTRLEIK | 18 nM | 0.000465 s⁻¹ | 26200 M⁻¹ s⁻¹ | 40% | 26.4 | 58.4 |  |  |  |  |
| Ten-M2-188 (antibody, IgG2, V domains shown, Fully human mAb from IgG2 kappa XenoMouse (B cell clone)) VH: QVQLVQSGAEVKKPGASVKVSCKASGYTFTGYYMHWVRQAPGQGLEWMGWINPNSGGTNSAQRFQGRVTMTRDTSIYTAYMELSRLRSDDTAVYYCAREYRSGRYYNGMDVWGQGTTVTVSS VL: DIQLTQSPSSLSASVGDRVTITCRASQDISNYLAWYQQKPGKVPKLLIYAASTLQSGVPSRFSGSGSGTDFTLTISSLQPEDIATYSCQKYSSTPFTFGPGTKVDIK |  |  |  | 48% | 22.1 | 41.6 |  |  |  |  |
| Ten-M2-199 (antibody, IgG2, V domains shown, Fully human mAb from IgG2 kappa XenoMouse (B cell clone); also called Mab199) VH: QVQLVQSGAEVKKPGASVKVSCKASGYTFTNYDINWLRQASGQGLEWMGWMNPDSGNTGYAQRFQGRVTMTRDTSISTAYMELSSLRSEDTAVYYCARYISSLHYYYYGMDVWGQGTTVTVSS VL: DIQMTQSPSSLSASVGDRVTITCRASQSINSYLNWYQQKPGKAPRLLIYAASNLQSGVPSRFSGSGSGTDFTLTISSLQPEDFSTYYCQQSHNTPLTFGGGTKVEIK |  |  | 23300 M⁻¹ s⁻¹ | 46% | 32.9 | 64.8 | ≤ 0.043 nM | ≤ 1e-06 s⁻¹ |  |  |
| Ten-M2-213 (antibody, IgG2, V domains shown, Fully human mAb from IgG2 kappa XenoMouse (B cell clone); also called Mab 213) VH: QVQLVQSGAEVKKPGASVKVSCKASGYTFTNYDINWVRQATGQGLEWMGWMNPNSGNTGYAQKFQGRVTMTRNTSIRTAYMELSSLRSEDTAVYYCARGPGGSFYYYYGMDVWGQGTTVTVSS VL: DIQMTQSPSSLSASVGDRVTITCRASQSISSYLNWYQQKPGKAPNLLIYTASSLQSGVPSRFSGSGSGTVFTLTISSLQPEDFATYYCQQSSSTPFTFGPGTKVDFK |  | 3.22e-05 s⁻¹ | 29000 M⁻¹ s⁻¹ | 46% | 40.2 | 79.7 |  |  | 1.1 nM |  |
| Ten-M2-140 (antibody, IgG2, V domains shown, Fully human mAb from IgG2 kappa XenoMouse (B cell clone); also called Mab140; anti-Ten-M2 monoclonal antibody clone 140) VH: QEQLVESGGGVVQPGRSLRLSCAASGFTFSSHGMHWVRQAPGKGLEWVAIIWYDGSKKFYADSVKGRFTISRDNSKNTLSLQMNSLRAEDTAVYYCARGPWNYYYYGMDVWGQGTTVTVSS VL: EIVLTQSPGTLSLSPGERATFSCRASQSVISNYLAWYQQKPGQAPRLLIYNTSSRATGIPGRFSGGGSGTDFTLTITRLEPEDFAVYYCQQYGSSPITFGQGTRLEIK | 15 nM | 0.000605 s⁻¹ | 40100 M⁻¹ s⁻¹ | 44% | 36.5 | 75.3 |  |  |  |  |
| Ten-M2-179 (antibody, IgG2, V domains shown, Fully human mAb from IgG2 kappa XenoMouse (B cell clone); also called Mab179) VH: QVQLVESGGGVVQPGRSLRLSCAASGFTFSSYGMHWVRQAPGKGLEWVAFIWYDGSNKYYADSVKGRFTISRDNSKNTLYLQMNSLRAEDTAVYYCARDGSSGWYFFDYWGQGTLVTVSS VL: DIVMTQTPLSLSVTPGQPASISCKSSQSLLHSDRQTYLFWYLQKPGQPPQLLIYEVSNRFSGVPDRFSGSGSGTDFTLKISRVEAEDVGVYYCMQSIQLPPTFGPGTKVDIK |  |  | 16300 M⁻¹ s⁻¹ | 29% | 13.6 | 89.6 | ≤ 0.61 nM | ≤ 1e-05 s⁻¹ |  |  |
| Ten-M2-7.1.1 (antibody, IgG2, V domains shown, Hybridoma clone from IgG2 kappa XenoMouse; tested as hybridoma supernatant) VH: QVQLVESGGGVVQPGRSLRLSCAASGFTFSNYGMHWVRQAPGKGLEWVAVIPFDGSNKYYADSVKGRFTISRDNSKNTLYLQTNSLRAEDTAVYYCARNWGYFDYWGQGTLVTVSS VL: DIVMTQSPLSLPVTPGEPASISCRTSQSLLQSNGYNYLDWYLQKPGQSPQLLIYLGSSRASGVPDRFSGSGSGTDFTLKISRVEAEDVGVYYCMQALQTLTFGGGTKVEIK |  |  |  |  |  |  |  |  |  | binds |
| Ten-M2-7.2.1 (antibody, IgG2, V domains shown, Hybridoma clone from IgG2 kappa XenoMouse; tested as hybridoma supernatant) VH: QVQLQESGPGLVKPSETLSLTCTVSGGSISSYYWSWIRQPPGKGLEWIGYIYYSGNTNYNPSLKSRVTISVDTSKNQFSLKLSSVTAADTAVYYCARDIVVVPAARDYDYYYGMDVWGQGTTVTVSS VL: EIVLTQFPGTLSLSPGESAPLSCRASQSVSSIDLVWYQQKPGQAPRLLIYGASSRATGIPDRFSVSGSGTDFTLTISRLEPEDFAVYYCQQYGSSPFTFGPGTKVDIK |  |  |  |  |  |  |  |  |  | binds |
| Ten-M2-8.1 (antibody, IgG2, V domains shown, Hybridoma clone from IgG2 kappa XenoMouse; tested as hybridoma supernatant) VH: QVQLQQWGAGLLKPSETLSLTCAVYGGSFSHYYWSWIRQPPGKGLEWIGEINHSGSTNYNPSLKSRVTISVDTSKNQFSLKLSSVTAADTAVYYCARDITMVRGLGGMDVWGQGTTVTVSS VL: not shown |  |  |  |  |  |  |  |  |  | binds |
